The values that follow come from patent US20220177569A1 (Novartis, published 2022).

Assay [1] addresses T1, Recombinant human IL-18 (human, UniProt Q14116 37-193).
T1 construct: also called huIL-18; hulL-18
Briefly: SET, simultaneous target binding, Assay B (both targets in serial dilutions in one mix). How it is done:
(§1) The plate was blocked with 50 μl/well blocking buffer (PBS containing 5% BSA) for 1 hour (h), at room temperature (RT). After washing (TBST, TBS containing 0.05% Tween 20), a volume of 30 μl/well of the equilibrated antigen- antibody mix was transferred from the polypropylene MTP to the coated MSD plate and incubated for 20 min at RT. After an additional wash step, 30 μl sulfo tag-labeled anti-IgG detection antibody (0.5 μg/ml) diluted in sample buffer were added to each well and incubated for 30 min at RT on a shaker. The MSD plate was washed and 35 μl/well MSD read buffer were added and incubated for 5 min at RT. Electrochemiluminescence (ECL) signals were generated and measured by the MSD Sector Imager 6000.
(§2) Assay B: The equilibration process (antibody/antigen mix) was performed with both targets in serial dilutions in one mix simultaneously (constant concentration of antibody […], highest antigen conc. see above). The same mix was then analyzed for its free antibody concentration on IL18 and IL-1β coated plates as described above.

Assay [2] addresses T2, Recombinant human IL-1β (human, UniProt P01584 117-269).
T2 construct: also called huIL-1β; IL-1b
Described as above. As for the experimental part: as §1, §2

Assay [3] has as its target T3, Recombinant marmoset IL-1β (marmoset, UniProt U3E018 117-268).
T3 construct: also called marIL-1β
The assay is described as above. How it is done: as §1, §2

In assay [4] the target is T4, Recombinant marmoset IL-18 (marmoset, UniProt U3CWC9 37-190).
T4 construct: also called marIL-18
T4 sequence: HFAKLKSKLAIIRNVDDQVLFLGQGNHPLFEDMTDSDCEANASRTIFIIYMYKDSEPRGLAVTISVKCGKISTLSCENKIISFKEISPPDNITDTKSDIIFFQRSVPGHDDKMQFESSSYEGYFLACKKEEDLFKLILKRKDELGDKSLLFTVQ
The assay is described as above. How it is done: as §1, §2

For assay [5], the target named is T4, Recombinant marmoset IL-18. Briefly: cell-based or functional assay.
The target of assay [6] is T1, Recombinant human IL-18. Briefly: cell-based or functional assay.
The target of assay [7] is T1, Recombinant human IL-18. Briefly: SET, simultaneous target binding, Assay A (excess of the other target, IL-1β). As for the experimental part:
as §1, §2

Assay [8] concerns the target T4, Recombinant marmoset IL-18. The description is as above. How it is done:
as §1, §2

The target in assay [9] is T1, Recombinant human IL-18. Briefly: cell-based or functional assay. This is another data set of the same source.
The target of assay [10] is T1, Recombinant human IL-18. Description: SET (solution equilibrium titration, MSD ECL), individual target binding. As for the experimental part: as §1
Assay [11] has as its target T4, Recombinant marmoset IL-18. The description is as above. As for the experimental part:
as §1

Assay [12] has as its target T3, Recombinant marmoset IL-1β. Briefly: cell-based or functional assay.
Assay [13] deals with T2, Recombinant human IL-1β. Briefly: cell-based or functional assay.
The target in assay [14] is T2, Recombinant human IL-1β. Briefly: SET (solution equilibrium titration, MSD ECL), individual target binding. How it is done:
as §1

The target in assay [15] is T3, Recombinant marmoset IL-1β. The description is as above. How it is done: as §1
Assay [16] addresses T2, Recombinant human IL-1β. Description: cell-based or functional assay. The source holds these as a separate data set.
Assay [17] addresses T2, Recombinant human IL-1β. Briefly: SET, simultaneous target binding, Assay A (excess of the other target, IL-18). As for the experimental part:
as §1, §2

For assay [18], the target named is T3, Recombinant marmoset IL-1β. Described as above. How it is done: as §1, §2

B1: mAb1 (IL-18 antibody) (antibody, human IgG1, lambda, L234A L235A, V domains shown)
VH: EVQLVQSGAEVKKPGSSVKVSCKASGGTFKSYAISWVRQAPGQGLEWMGNIIPMTGQTYYAQKFQGRVTITADESTSTAYMELSSLRSEDTAVYYCARAAYHPLVFDNWGQGTLVTVSS
VL: DIVLTQPPSVSGAPGQRVTISCSGSSSNIGNHYVNWYQQLPGTAPKLLIYRNNHRPSGVPDRFSGSKSGTSASLAITGLQSEDEADYYCQSWDYSGFSTVFGGGTKLTVLG
For orientation: Kd means the equilibrium constant for the complex coming apart. Turning to B1, the Kd was found to be 11.4 pM with Recombinant human IL-18 [1]; 26.3 pM in assay [4]; 13.5 pM in the assay with Recombinant human IL-18 [7]; 27.1 pM in [8]; 9 pM in the assay with Recombinant human IL-18 [10]; 21 pM in assay [11]. Besides, the binding result with Recombinant human IL-1β [2] is “no binding (tested: highest antigen conc. huIL-1β 0.5 nM)”; in assay [3], “no binding (tested: highest antigen conc. marIL-1β 0.5 nM)”. The “IFNγ prod. Human PBMC IC50 (marmoset IL-18 1 nM and human IL-12 10 ng/ml)” value in [5] was determined as 6600 pM. Besides, in assay [5], the “IFNγ prod. Marmoset blood IC50 (marmoset IL-18 0.3 nM and human IL-12 10 ng/ml)” value was 4700 pM. Besides, the “IFNγ prod. Marmoset blood IC50 (marmoset IL-18 3 nM and human IL-12 10 ng/ml)” value in assay [5] turned out to be 181000 pM. Besides, in the assay with Recombinant human IL-18 [6], the “IFNγ prod. KG-1 cells IC50 (3 nM recombinant human IL-18 and 1 ng/ml human IL-12)” value turned out to be 35 pM. In addition, the “IFNγ prod. PBMC IC50 (3 nM recombinant human IL-18 and 1 ng/ml human IL-12)” value in the assay with Recombinant human IL-18 [6] came to 780 pM. The “Inhibition of SEAP in HEK reporter cells stimulated simultaneously with IL-1β and IL-18, IC50; mAb1 alone” value with Recombinant human IL-18 [9] was greater than 30000 pM. The “Inhibition of SEAP in HEK reporter cells stimulated simultaneously with IL-1β and IL-18, IC50; mAb2 and mAb1 combined” value with Recombinant human IL-18 [9] was 240 pM.

B2: mAb2 (IL-1β antibody) (antibody, human IgG1, kappa, V domains shown)
VH: QVQLVESGGGVVQPGRSLRLSCAASGFTFSVYGMNWVRQAPGKGLEWVAIIWYDGDNQYYADSVKGRFTISRDNSKNTLYLQMNGLRAEDTAVYYCARDLRTGPFDYWGQGTLVTVSS
VL: EIVLTQSPDFQSVTPKEKVTITCRASQSIGSSLHWYQQKPDQSPKLLIKYASQSFSGVPSRFSGSGSGTDFTLTINSLEAEDAAAYYCHQSSSLPFTFGPGTKVDIKR
With B2, in the assay with Recombinant human IL-18 [1], the binding result is given as “no binding (tested: highest antigen conc. huIL-18 5 nM)”. Moreover, the dissociation constant Kd was 3.2 pM with Recombinant human IL-1β [2]; 4.8 pM in assay [3]; 0.6 pM in the assay with Recombinant human IL-1β [14]; 1 pM in [15]; 1.1 pM in the assay with Recombinant human IL-1β [17]; 0.8 pM in assay [18]. The “IL-6 prod. dermal fibroblasts IC50, Exp. B (18 pM recombinant marmoset IL-1β; marmoset cells by the reading of the header)” value in [12] worked out at 0.138 nM. In addition, the “IL-6 prod. dermal fibroblasts IC50, Exp. C (18 pM recombinant marmoset IL-1β; human cells by the reading of the header)” value in [12] came to 0.114 nM. Further, the “IL-6 prod. marmoset dermal fibroblasts IC50, Exp. A (18 pM recombinant marmoset IL-1β)” value in [12] was 95 pM. In the assay with Recombinant human IL-1β [13], the “Inhibition of SEAP in HEK reporter cells stimulated simultaneously with IL-1β and IL-18, IC50; mAb2 alone” value stood at 30000 pM. Besides, in the assay with Recombinant human IL-1β [13], the “Inhibition of SEAP in HEK reporter cells stimulated simultaneously with IL-1β and IL-18, IC50; mAb2 and mAb1 combined” value turned out to be 240 pM. Moreover, the “IL-6 prod. PBMC IC50 (human PBMC stimulated with 60 pM recombinant human IL-1β)” value with Recombinant human IL-1β [16] is 0.29 nM. The “IL-6 prod. derm. fibrobl. IC50 (human dermal fibroblasts stimulated with 6 pM recombinant human IL-1β)” value in the assay with Recombinant human IL-1β [16] stood at 31 pM.
